Residue numbers refer to the chain shown, from its start.
T1: biliverdin reductase (Homo sapiens, UniProt P53004, A154S/E160D/G155D/G17A)
T1 construct: used to amplify the full-length cDNA by PCR as described in purification of cloned reductase; GST (N, cleaved yes); made in house; host or cells: E. coli
T1 sequence (P53004 1-296 G17A/A154S/G155D/E160D): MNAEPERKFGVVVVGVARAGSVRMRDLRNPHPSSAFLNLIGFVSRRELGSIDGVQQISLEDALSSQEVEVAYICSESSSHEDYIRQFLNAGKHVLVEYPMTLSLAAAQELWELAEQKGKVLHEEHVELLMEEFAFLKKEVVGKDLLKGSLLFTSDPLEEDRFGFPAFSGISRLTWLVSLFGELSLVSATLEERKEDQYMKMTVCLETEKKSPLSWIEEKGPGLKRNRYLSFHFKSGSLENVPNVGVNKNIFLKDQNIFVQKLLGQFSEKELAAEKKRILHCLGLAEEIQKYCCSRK

B1: Gly^17: hBVR SEQ. ID. No. 1 with Gly^17→Ala within the nucleotide binding domain (protein, listed as Homo sapiens)
chain: T1 sequence (P53004 1-296 G17A/A154S/G155D/E160D)
B2: Ser^149: hBVR SEQ. ID. No. 1 with Ser^149→Ala within the kinase motif of the leucine zipper (protein, listed as Homo sapiens)
chain: T1 sequence (P53004 1-296 G17A/A154S/G155D/E160D) with A17G, S149A
B3: wild type: wild type human biliverdin reductase, SEQ. ID. No. 1; E. coli expressed or purified from human kidney (protein, listed as Homo sapiens)
chain: T1 sequence (P53004 1-296 G17A/A154S/G155D/E160D) with A17G
B4: Lys^296 mutant: hBVR with Lys^296→Ala at the C terminus within a substrate binding domain (protein, UniProt P53004 3-296, looked up, variant K296A)
Biliverdin reductase A: AEPERKFGVVVVGVGRAGSVRMRDLRNPHPSSAFLNLIGFVSRRELGSIDGVQQISLEDALSSQEVEVAYICSESSSHEDYIRQFLNAGKHVLVEYPMTLSLAAAQELWELAEQKGKVLHEEHVELLMEEFAFLKKEVVGKDLLKGSLLFTAGPLEEERFGFPAFSGISRLTWLVSLFGELSLVSATLEERKEDQYMKMTVCLETEKKSPLSWIEEKGPGLKRNRYLSFHFKSGSLENVPNVGVNKNIFLKDQNIFVQKLLGQFSEKELAAEKKRILHCLGLAEEIQKYCCSRA
B5: NLS mutant: hemagglutinin tagged hBVR with amino acids 222-227 changed from GLKRNR to VIGSTG (SEQ. ID. No. 25) (protein, UniProt P53004 3-296, looked up, variant G222V L223I K224G R225S N226T R227G)
Biliverdin reductase A: B4 Biliverdin reductase A with G220V, L221I, K222G, R223S, N224T, R225G, A294K
modifications: hemagglutinin tag

How the values were obtained:
biliverdin reductase [1] = target: T1, biliverdin reductase; experiment: Phosphorylation state of hBVR, SDS-PAGE immunoblot with anti-phospho antibodies; type: biochemical; settings: versus wild type
Protocol: (§1) Purified protein was subjected to 12.5% SDS-PAGE and the protein transferred to PVDF membrane. The membrane was subsequently treated as for Western blotting, using anti-phosphoserine, anti-phosphotyrosine or anti-phosphothreonine, at 2 μg/ml, or a mixture of all three antibodies as the primary antibody. The secondary antibody was goat anti-rabbit horseradish peroxidase at a 1:1000 dilution and detection was carried out using the ECL reagent kit (NEN Life Sciences) according to the manufacturer's instructions.

[2] = Biliverdin reductase catalytic activity of recombinant wild type and mutant hBVR (Example 2, FIG. 3); type: biochemical, human
Protocol: FIGS. 3A-C are graphs depicting the effects of mutation of Gly^17, Ser^149, and Lys^296 on BVR catalytic activity. Purified preparations of recombinant wild type and mutant BVR with substitution of Gly^17 (FIG. 3A), Ser^149 (FIG. 3B), or Lys^296 (FIG. 3C) with Ala were assessed for BVR activity at pH 6.5 using NADH as cofactor and at pH 8.7 with NADPH as cofactor. Values presented are in percent wild type activity for each pH. The specific activity of the wild type preparation was 1744 nmol bilirubin produced min^−1 mg^−1 at pH 6.5 and 1147 nmol bilirubin produced min^−1 mg^−1 at pH 8.7. Values presented are representative of 2-4 determinations.
GST-BVR fusion proteins were prepared as described in Example 1. Human kidney biliverdin reductase was purified to homogeneity as described by Maines et al., Arch. Biochem. Biophys. 300:320-326 (1993), which is hereby incorporated by reference. The purified reductase preparations were judged to be homogenous by SDS-PAGE. Protein concentration was determined by the method of Bradford, Anal. Biochem. 72:248-254 (1976), which is hereby incorporated by reference.
Activity was determined as previously described by Huang et al., J. Biol. Chem. 264:7844-7849 (1989), which is hereby incorporated by reference, using NADPH as the cofactor at pH 8.7 in 0.1 M […] or NADH at pH 6.5 in […]. The rate of activity was measured as the increase in 450 nm absorbance at 25° C. Specific activity is expressed in units/mg protein, where 1 unit catalyzes the formation of 1 nmol bilirubin/min.

[3] = Biliverdin reductase activity of E. coli expressed hBVR wild type and mutants (Example 1); type: biochemical, human; settings: for Activity (nmol bilirubin/min/mg) pH 6.7 + NADH: pH 6.7, NADH cofactor; for Activity (nmol bilirubin/min/mg) pH 6.7 + NADH / Activity (nmol bilirubin/min/mg) pH 8.7 + NADPH: 25°; for Activity (nmol bilirubin/min/mg) pH 8.7 + NADPH: pH 8.7, NADPH cofactor
Protocol: SalI linkers are underlined in each primer. The products were digested with SalI and cloned into the vector pGEX 4T-2. Orientation was determined by restriction analysis and confirmed by sequencing. The ligation places the BVR coding region in frame with the GST protein of the vector. GST-BVR fusion proteins were purified from bacterial clones containing the plasmid, and grown overnight using a glutathione-sepharose 4B column (Pharmacia). The reductase portion of the fusion protein was released by thrombin protease treatment.
Activity was determined as previously described (Kutty et al., J. Biol. Chem. 256:3956-3962 (1981); Huang et al., J. Biol. Chem. 264:7844-7849 (1989), which are hereby incorporated by reference). Activity was determined in a 1 ml assay volume that contained 0.1 M Tris/HCl, pH 8.7 NADPH (100 μM), and biliverdin (5 μM). Reductase activity was also measured using NADH (1 mM) as the cofactor; in this case 0.1 M potassium phosphate pH 6.75, was substituted for Tris/HCl. SDS/PAGE was performed by the method of Laemmli, Nature 227:680-685 (1970), which is hereby incorporated by reference. Western blot analysis was performed using anti-serum to human kidney biliverdin reductase as previously described (Maines et al., Arch. Biochem. Biophys. 300:320-326 (1993), which is hereby incorporated by reference). The relative amounts of immunoreactive protein were determined by scanning the blot using a laser densitometer and comparing the area under the peak for each mutant with the wild type. The rate of activity was measured as the increase in 450 nm absorbance at 25° C. Specific activity is expressed as nmol bilirubin/min/ mg protein.

biliverdin reductase [4] = experiment: Phosphorylation state of hBVR, SDS-PAGE immunoblot with anti-phospho antibodies; type: biochemical, human; settings: for autophosphorylation activity: anti-phospho mix blot, corrected for protein loading
Protocol: as §1

HeLa cells = experiment: Nuclear translocation of hemagglutinin-tagged BVR constructs after 8-bromo-cGMP, immunofluorescence; type: cell-based, human; settings: 500 μM 8-bromo-cGMP, 5 min (up to 60 min)
Protocol: HeLa cells were grown on glass cover slips in DMEM medium containing 10% FBS under an atmosphere of 5% CO2. Cells were transfected with different BVR constructs using Lipofectamine, as described by the manufacturer. Briefly, cells were treated with a mixture of 2 μg DNA and 20 μl Lipofectamine for 5 h followed by the addition of DMEM medium. After 48 h, cells were treated with 500 μM 8-bromo-cGMP for 5, 20 or 60 min, fixed with 4% paraformaldehyde for 10 min. Cells were then rinsed with phosphate-buffered saline, incubated with 5% goat serum to block nonspecific binding sites and then with monoclonal anti hemagglutinin primary antibody and FITC conjugated secondary antibody. Cells were visualized by direct fluorescence microscopy.

| Molecule | BVR catalytic activity versus wild type ([2]; pH 6.5, NADH) | BVR catalytic activity versus wild type ([2]; pH 8.7, NADPH) | Activity (nmol bilirubin/min/mg) pH 6.7 + NADH [3] [nmol bilirubin/min/mg] | reductase activity relative to the control (wild type) ([3]; pH 6.7 with NADH) | Activity (nmol bilirubin/min/mg) pH 8.7 + NADPH [3] [nmol bilirubin/min/mg] | autophosphorylation activity (biliverdin reductase [4]) | nuclear localization in response to 8-bromo-cGMP (HeLa cells) | also measured |
| --- | --- | --- | --- | --- | --- | --- | --- | --- |
| B1 | essentially inactive | essentially inactive | 698 | 20-25% | 0 | – | – | reduction in phosphorylation (biliverdin reductase [1]; anti-phospho mix, laser densitometry): approximately 50%; reduction of phosphoserine signal (biliverdin reductase [1]; anti-phosphoserine): approximately 50%; reduction in phosphothreonine signal (biliverdin reductase [1]; anti-phosphothreonine): not evident; reduction of phosphotyrosine signal (biliverdin reductase [1]; anti-phosphotyrosine): approximately 50%; reductase activity relative to the control (wild type) ([3]; pH 8.7 with NADPH): inactive |
| B2 | essentially inactive | essentially inactive | 0 | inactive | 231 | essentially comparable to that of the wild type protein | – | reductase activity relative to the control (wild type) ([3]; pH 8.7 with NADPH, listed as Ser^149 mutant): minimal activity |
| B3 | – | – | 2830 | – | 1338 | – | strong punctate staining associated with the nucleus | phosphorylation state (biliverdin reductase [4]; protein purified from human kidney, anti-phospho mix): phosphoprotein; specific activity ([2]; pH 6.5, NADH): 1744 nmol bilirubin produced min^−1 mg^−1; specific activity ([2]; pH 8.7, NADPH): 1147 nmol bilirubin produced min^−1 mg^−1; Activity % pH 6.7 + NADH ([3]; Cys→Ala mutations, wild type = 100, pH 6.7, NADH): 100%; Activity % pH 8.7 + NADPH ([3]; Cys→Ala mutations, wild type = 100, pH 8.7, NADPH): 100% |
| B4 | doubling of activity | doubling of activity | – | – | – | essentially comparable to that of the wild type protein | – | – |
| B5 | – | – | – | – | – | – | not detected | – |

Reference: patent US20050287132A1, “Biliverdin reductase fragments and variants, and methods of using biliverdin reductase and such fragments and variants” (University of Rochester, priority 1999, published 2005)
